According to PMC5740878:

Biological target: UHRF1-mCherry (UniProt Q96T88)
Test: FRET or BRET; FLIM-FRET in fixed HeLa cells 24 h after co-transfection of TIP60-eGFP WT/mutants (donor) and UHRF1-mCherry (acceptor) 1:1; two-photon excitation at 930 nm; E = 1-(τDA/τD); one-component and two-component analysis of decays

UHRF1-mCherry, sequence (Q96T88 whole entry): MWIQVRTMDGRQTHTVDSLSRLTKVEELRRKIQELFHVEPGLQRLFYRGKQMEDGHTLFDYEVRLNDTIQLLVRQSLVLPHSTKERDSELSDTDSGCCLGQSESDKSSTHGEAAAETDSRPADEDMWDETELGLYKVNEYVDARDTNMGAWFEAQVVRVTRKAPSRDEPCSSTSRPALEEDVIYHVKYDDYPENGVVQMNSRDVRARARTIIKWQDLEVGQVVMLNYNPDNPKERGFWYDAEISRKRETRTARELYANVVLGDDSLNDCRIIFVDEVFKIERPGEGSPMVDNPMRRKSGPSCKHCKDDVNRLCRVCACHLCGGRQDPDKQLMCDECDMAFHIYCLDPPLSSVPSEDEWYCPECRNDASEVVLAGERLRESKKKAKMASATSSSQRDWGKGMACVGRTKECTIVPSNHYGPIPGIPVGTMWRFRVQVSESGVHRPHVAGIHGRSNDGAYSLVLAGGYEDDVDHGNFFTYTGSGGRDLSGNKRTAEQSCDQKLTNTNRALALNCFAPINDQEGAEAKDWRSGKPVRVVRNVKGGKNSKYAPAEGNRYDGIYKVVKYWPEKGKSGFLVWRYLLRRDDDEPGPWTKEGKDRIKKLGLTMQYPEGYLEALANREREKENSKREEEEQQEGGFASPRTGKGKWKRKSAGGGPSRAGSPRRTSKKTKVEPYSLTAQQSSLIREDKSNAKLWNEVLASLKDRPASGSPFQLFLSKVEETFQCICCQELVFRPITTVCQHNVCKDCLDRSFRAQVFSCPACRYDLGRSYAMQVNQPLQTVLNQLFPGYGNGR
TIP60∆CRD-eGFP, sequence (Q92993 whole entry): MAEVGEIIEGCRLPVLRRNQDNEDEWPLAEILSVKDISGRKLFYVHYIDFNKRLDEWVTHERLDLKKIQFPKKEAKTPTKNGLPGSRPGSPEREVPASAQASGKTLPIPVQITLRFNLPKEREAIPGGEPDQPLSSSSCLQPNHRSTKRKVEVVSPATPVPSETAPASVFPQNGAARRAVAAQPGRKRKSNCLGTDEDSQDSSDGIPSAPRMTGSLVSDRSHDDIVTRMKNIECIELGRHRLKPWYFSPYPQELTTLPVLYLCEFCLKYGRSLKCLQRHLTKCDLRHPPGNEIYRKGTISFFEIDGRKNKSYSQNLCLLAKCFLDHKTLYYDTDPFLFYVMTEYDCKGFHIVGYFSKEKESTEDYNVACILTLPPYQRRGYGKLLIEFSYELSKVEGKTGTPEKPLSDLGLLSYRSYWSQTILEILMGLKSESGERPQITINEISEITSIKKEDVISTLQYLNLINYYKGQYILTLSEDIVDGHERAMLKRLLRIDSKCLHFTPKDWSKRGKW

- average FRET: 12.2%
- average FRET of the short lifetime component, two-component model: 43%
- mean short lifetime component (τ1), two-component model: 1.4 ns
- population (α1) of the interacting short lifetime component: 19%
Substance: TIP60∆CRD-eGFP (from UniProt Q92993 1-513) (natural protein)
